Test results as given in patent US20190031718A1.

How the values were obtained:
TAT-CaM (HIV; human) [1] = experiment: BLI, dissociation after moving sensors to buffer with 10 mM EDTA (1 µM sample)
TAT-CaM (HIV; human) [2] = experiment: BLI (Octet QK), biotinylated TAT-CaM on streptavidin sensors, cargo as analyte, global 1:1 association-then-dissociation fit
TAT-CaM (HIV; human) [3] = experiment: BLI, dissociation upon exposure to EDTA
TAT-CaM (HIV; human) [4] = experiment: BLI (Octet QK), biotinylated TAT-CaM on streptavidin sensors, eNOS as analyte, global 1:1 association-then-dissociation fit
[5] = biological target: troponin inhibitory peptide-myoglobin; experiment: BLI, biotinylated TAT-troponin on streptavidin sensors, troponin inhibitory peptide-myoglobin as analyte (1 µM to 63 nM), one-state association-then-dissociation fit
[6] = biological target: troponin inhibitory peptide-myoglobin; experiment: BLI, sensor exposed to the highest analyte concentration, then dipped into buffer with EDTA
CBS-myoglobin [7] = experiment: as above
CBS-myoglobin [8] = experiment: BLI, biotinylated CPP-adapter on streptavidin sensors, CBS-myoglobin as analyte (1 µM to 63 nM), one-state association-then-dissociation fit
CBS-myoglobin [9] = experiment: BLI, dissociation in buffer with EDTA

Sequence of endothelial nitric oxide synthase (enzyme) (P29473 2-1205): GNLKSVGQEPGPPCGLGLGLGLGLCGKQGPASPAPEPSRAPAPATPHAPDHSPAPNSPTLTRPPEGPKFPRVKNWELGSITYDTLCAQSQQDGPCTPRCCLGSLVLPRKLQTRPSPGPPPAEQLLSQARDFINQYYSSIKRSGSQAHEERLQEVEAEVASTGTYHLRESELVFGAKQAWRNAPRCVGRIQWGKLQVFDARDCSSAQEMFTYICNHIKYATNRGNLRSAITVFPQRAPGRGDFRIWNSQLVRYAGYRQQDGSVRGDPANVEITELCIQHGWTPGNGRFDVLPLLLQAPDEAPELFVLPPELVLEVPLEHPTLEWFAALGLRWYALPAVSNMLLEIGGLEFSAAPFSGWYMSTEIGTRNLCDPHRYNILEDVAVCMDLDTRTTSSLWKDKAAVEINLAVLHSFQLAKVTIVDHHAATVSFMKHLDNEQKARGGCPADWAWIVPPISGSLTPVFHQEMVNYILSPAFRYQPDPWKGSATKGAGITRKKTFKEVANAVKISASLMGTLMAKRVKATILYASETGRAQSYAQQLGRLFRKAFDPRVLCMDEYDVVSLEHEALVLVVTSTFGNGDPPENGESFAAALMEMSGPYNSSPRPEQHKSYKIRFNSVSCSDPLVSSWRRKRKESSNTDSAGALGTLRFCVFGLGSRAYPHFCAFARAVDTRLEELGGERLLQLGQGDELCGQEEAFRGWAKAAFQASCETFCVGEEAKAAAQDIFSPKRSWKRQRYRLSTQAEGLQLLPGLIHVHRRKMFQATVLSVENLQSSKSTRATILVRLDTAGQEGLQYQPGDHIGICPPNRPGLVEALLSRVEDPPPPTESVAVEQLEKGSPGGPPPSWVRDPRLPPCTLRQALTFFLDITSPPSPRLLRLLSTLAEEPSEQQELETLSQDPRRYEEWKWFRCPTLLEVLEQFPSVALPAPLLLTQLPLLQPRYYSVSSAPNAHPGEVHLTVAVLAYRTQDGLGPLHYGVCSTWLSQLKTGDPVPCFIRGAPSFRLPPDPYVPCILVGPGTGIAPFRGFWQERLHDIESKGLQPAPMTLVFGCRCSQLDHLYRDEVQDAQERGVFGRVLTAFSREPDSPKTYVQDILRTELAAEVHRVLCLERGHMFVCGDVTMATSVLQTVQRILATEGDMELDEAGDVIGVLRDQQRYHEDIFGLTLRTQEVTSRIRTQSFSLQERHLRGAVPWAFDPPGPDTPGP
Sequence of CBS-HRP (P00433 31-338): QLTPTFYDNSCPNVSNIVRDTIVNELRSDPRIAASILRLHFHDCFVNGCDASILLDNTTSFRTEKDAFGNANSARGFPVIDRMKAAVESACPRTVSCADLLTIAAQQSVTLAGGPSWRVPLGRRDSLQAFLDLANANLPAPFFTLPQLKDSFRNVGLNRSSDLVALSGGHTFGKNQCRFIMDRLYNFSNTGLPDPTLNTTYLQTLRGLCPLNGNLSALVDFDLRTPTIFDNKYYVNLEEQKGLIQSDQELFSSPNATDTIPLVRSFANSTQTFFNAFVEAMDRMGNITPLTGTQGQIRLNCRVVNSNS

CBS-β-Gal (enzyme)
koff (EDTA) (TAT-CaM (HIV; human) [1]): 0.05 s⁻¹ | Kd (TAT-CaM (HIV; human) [2]): 73 nM | koff (TAT-CaM (HIV; human) [2]): 0.00067 s⁻¹ | kon (TAT-CaM (HIV; human) [2]): 9200 M⁻¹ s⁻¹ | koff (EDTA) (TAT-CaM (HIV; human) [3]): 0.1 s⁻¹

endothelial nitric oxide synthase (enzyme)
Kd (TAT-CaM (HIV; human) [4]): 15 nM | koff (TAT-CaM (HIV; human) [4]): 0.00018 s⁻¹ | kon (TAT-CaM (HIV; human) [4]): 12000 M⁻¹ s⁻¹

TAT-troponin
kon [5]: 3700 M⁻¹ s⁻¹ | koff (EDTA) [6]: 0.018 s⁻¹

CBS-HRP (from UniProt P00433 31-338) (enzyme)
koff (EDTA) (TAT-CaM (HIV; human) [1]): 0.2 s⁻¹ | Kd (TAT-CaM (HIV; human) [2]): 160 nM | koff (TAT-CaM (HIV; human) [2]): 0.00028 s⁻¹ | kon (TAT-CaM (HIV; human) [2]): 1700 M⁻¹ s⁻¹ | koff (EDTA) (TAT-CaM (HIV; human) [3]): 0.1 s⁻¹

SAP(E)-CaM
koff (EDTA) (CBS-myoglobin [7]): 0.2 s⁻¹ | Kd (CBS-myoglobin [8]): 13.3 nM | koff (CBS-myoglobin [8]): 0.00013 s⁻¹ | kon (CBS-myoglobin [8]): 9400 M⁻¹ s⁻¹ | koff (EDTA) (CBS-myoglobin [9]): 0.1 s⁻¹

TAT-CaM 2.0 (from UniProt P0DP23 2-149)
koff (EDTA) (CBS-myoglobin [7]): 0.17 s⁻¹ | kon (CBS-myoglobin [8]): 4900 M⁻¹ s⁻¹ | koff (EDTA) (CBS-myoglobin [9]): 0.1 s⁻¹

CBS-myoglobin
koff (EDTA) (TAT-CaM (HIV; human) [1]): 0.09 s⁻¹ | Kd (TAT-CaM (HIV; human) [2]): 0.9 nM | koff (TAT-CaM (HIV; human) [2]): 5.5e-05 s⁻¹ | kon (TAT-CaM (HIV; human) [2]): 59000 M⁻¹ s⁻¹ | koff (EDTA) (TAT-CaM (HIV; human) [3]): 0.1 s⁻¹

TAT-calmodulin like protein 3 (from UniProt P27482 1-149)
koff (EDTA) (CBS-myoglobin [7]): 0.07 s⁻¹ | Kd (CBS-myoglobin [8]): 29.8 nM | koff (CBS-myoglobin [8]): 0.00018 s⁻¹ | kon (CBS-myoglobin [8]): 6100 M⁻¹ s⁻¹ | koff (EDTA) (CBS-myoglobin [9]): 0.1 s⁻¹
